Measured values: publication PMC10127613 (mBio, 2023)
Blank lines part the entries; values can stand above or below the molecule they belong to.

What was measured:
Clr [1] = biological target: T1, Clr (Sinorhizobium meliloti, UniProt Q92SD2); assay: isothermal titration calorimetry; format: binding
T1 construct: gene SMc02175

[2] = biological target: Sinorhizobium meliloti Clr, C-terminally His6-tagged (Sinorhizobium meliloti); assay: SEC; apo-Clr in solution (no cNMP, no DNA); dimer to monomers
[3] = biological target: Sinorhizobium meliloti Clr, C-terminally His6-tagged (Sinorhizobium meliloti); assay: crystal structure; Clr (0.25 or 0.44 mM) with 25 mM cAMP or cGMP, 25 mM MgCl2 and 1.25-fold excess of 19-mer/14-mer duplex CBS-DNA; sitting-drop vapor diffusion, 291 K (cAMP) or 281 K (cGMP)
Clr [4] = biological target: T2, Clr (Sinorhizobium meliloti, UniProt Q92SD2 1-234); assay: ITC; 1 mM cAMP; EMSA: 2 mM HEPES pH 7.0, 30 mM NaCl, 50 mM KCl, 850 ng salmon sperm DNA, 1 ug BSA, 20 ng Cy3-DNA, 3 ug Clr in 10 uL, 1 mM cAMP, room temperature. ITC: 20 mM HEPES, 300 mM NaCl, 20 mM MgCl2, pH 7.0, 25 C; details: protein: recombinant; tags: C-terminal His6 (pET36b, NdeI/XhoI); chain copies: 2; two copies of each strand; duplex arms joined by palindromic 5' overhang CTAG (4 nt) of the 19-mer, 1 nt 3' overhang G; nicked
T2 sequence: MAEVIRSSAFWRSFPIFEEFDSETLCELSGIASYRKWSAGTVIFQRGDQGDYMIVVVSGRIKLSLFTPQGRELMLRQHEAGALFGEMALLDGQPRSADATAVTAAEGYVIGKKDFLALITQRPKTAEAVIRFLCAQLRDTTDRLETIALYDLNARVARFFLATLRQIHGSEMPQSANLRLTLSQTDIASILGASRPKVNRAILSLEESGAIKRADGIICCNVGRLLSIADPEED

Kd (Clr [1]): 23.8 ± 14.5 µM
Molecule: Nc1nc2c(ncn2[C@@H]2O[C@@H]3COP(=O)(O)O[C@H]3[C@H]2O)c(=O)[nH]1 [cGMP]

percent in the monomeric state [2]: 86% | stoichiometry N [2]: 2
Molecule: Sinorhizobium meliloti Clr, C-terminally His6-tagged

stoichiometry N [3]: 2
Molecule: Sinorhizobium meliloti Clr, C-terminally His6-tagged (natural protein)

B1: CBS-DNA, two identical 19-mer/14-mer duplexes joined by palindromic CTAG sticky ends (nicked 33-nt) (dsDNA)
DNA 1: CTAGGTAACATTACTCGCG
DNA 2: GCGAGTAATGTTAC
DNA 3: CTAGGTAACATTACTCGCG
DNA 4: GCGAGTAATGTTAC
Kd (Clr [4]): 6 ± 4.7 µM
